How the values were obtained:
[1] = target: T1, human GPC3 on tumor cell lines (HepG2, Huh-7, NCI-H661, MKN-45, NCI-H23, BxPC-3, NCI-H292) (human, UniProt P51654 25-554); test: flow cytometry on Huh-7 cells
T1 construct: Endogenous GPC3 of human cancer cell lines; also called GPC3 on HepG2; GPC3 on Huh-7

[2] = target: T2, TCRab on primary cyno T cells (cynomolgus); test: competition flow cytometry on cyno T cells, competitor T017000623 at EC30 (5E-08 M)
T2 construct: whole, on cells; also called Primary cy T cells; cyno TCR
Procedure: (§1) T cells (human T cells obtained as described in Example 3 and cyno T cells purchased from LPT laboratory, Germany) were thawed and counted on the day of the assay and diluted to a concentration of 1E+06 cells/mL, before adding 75 μL to the wells of a V-bottom 96-well plate (Greiner, cat no 651180). Cells were washed once with cold FACS buffer, before adding 25 μL Nb and 25 μL competitor to the wells. […] Cells were resuspended and plates were incubated at 4° C. for 90 minutes, after which plates were washed twice in cold FACS buffer. Cells were resuspended in 50 μl 1/1000 diluted Monoclonal ANTI-FLAG® M2 (Sigma Aldrich, cat no F1804) in FACS buffer and incubated at 4° C. for 30 minutes. Plates were washed twice in cold FACS buffer. […] Plates were washed twice in cold FACS buffer. Cells were resuspended in 55 μL 1/1000 diluted Propidium Iodide (Sigma-Aldrich, cat no P4170) in FACS buffer before acquiring data on the MACSQuant X (Miltenyi biotec).

[3] = target: T1, human GPC3 on tumor cell lines (HepG2, …); test: cell-based or functional assay
[4] = target: T3, cyno GPC3 expressed on CHO Flp-In cells (cynomolgus); test: flow cytometry on cells expressing GPC3; lower end tied by Table 21 to CHO cyno GPC3
T3 construct: range 3-559; On cells; also called cyGPC3 CHO; CHO-cGPC3

[5] = target: T4, human serum albumin (Sigma cat no A8763) (human, UniProt P02768 25-609); test: SPR ProteOn XPR36, serum albumin immobilized by amine coupling, 1:1 model
T4 construct: also called HSA
Procedure: (§2) Serum albumin proteins were immobilized on a GLC Sensor Chip (Biorad) via amine coupling, using EDC and NHS chemistry (running buffer: HBS-EP+, pH 7.4). Purified ISVDs were injected for 2 minutes (flow rate 45 μL/min) at different concentrations (between 0.24 nM and 500 nM) and dissociation was followed for 900 s. Regeneration was performed by injecting 10 mM Glycine-HCl (pH 1.5) for 47 seconds (flow rate 100 μL/min). Data was double referenced by subtracting a reference ligand lane and a blank buffer injection. Processed sensorgrams were analyzed based on the 1:1 interaction model (Langmuir binding model) using ProteOn Manager 3.1.0 (Version 3.1.0.6) software.

[6] = target: T5, cyno serum albumin (in house produced from animal tissue) (cynomolgus); test: as above
T5 construct: also called cynomolgus serum albumin
T5 sequence (A2V9Z4 25-608): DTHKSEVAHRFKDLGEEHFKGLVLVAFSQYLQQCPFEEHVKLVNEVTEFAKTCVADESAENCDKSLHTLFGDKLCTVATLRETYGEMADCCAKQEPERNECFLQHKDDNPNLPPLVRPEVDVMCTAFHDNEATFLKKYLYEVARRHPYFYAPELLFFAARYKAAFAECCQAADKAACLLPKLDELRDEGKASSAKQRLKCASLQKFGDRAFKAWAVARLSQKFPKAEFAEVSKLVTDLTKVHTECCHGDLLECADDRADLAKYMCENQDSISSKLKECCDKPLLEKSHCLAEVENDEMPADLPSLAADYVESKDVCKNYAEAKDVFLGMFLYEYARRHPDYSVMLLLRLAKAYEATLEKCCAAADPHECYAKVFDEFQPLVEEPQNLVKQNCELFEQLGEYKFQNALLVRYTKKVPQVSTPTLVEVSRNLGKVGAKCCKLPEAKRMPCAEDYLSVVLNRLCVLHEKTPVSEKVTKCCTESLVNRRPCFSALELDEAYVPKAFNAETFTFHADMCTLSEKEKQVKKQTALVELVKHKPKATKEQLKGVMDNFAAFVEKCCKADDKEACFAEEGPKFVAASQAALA
Procedure: as §2

[7] = target: mouse serum albumin (DivBioScience cat no IMSA) (mouse, UniProt P07724 25-608); test: as above
Sequence of mouse serum albumin (DivBioScience cat no IMSA) (P07724 25-608 limits assumed): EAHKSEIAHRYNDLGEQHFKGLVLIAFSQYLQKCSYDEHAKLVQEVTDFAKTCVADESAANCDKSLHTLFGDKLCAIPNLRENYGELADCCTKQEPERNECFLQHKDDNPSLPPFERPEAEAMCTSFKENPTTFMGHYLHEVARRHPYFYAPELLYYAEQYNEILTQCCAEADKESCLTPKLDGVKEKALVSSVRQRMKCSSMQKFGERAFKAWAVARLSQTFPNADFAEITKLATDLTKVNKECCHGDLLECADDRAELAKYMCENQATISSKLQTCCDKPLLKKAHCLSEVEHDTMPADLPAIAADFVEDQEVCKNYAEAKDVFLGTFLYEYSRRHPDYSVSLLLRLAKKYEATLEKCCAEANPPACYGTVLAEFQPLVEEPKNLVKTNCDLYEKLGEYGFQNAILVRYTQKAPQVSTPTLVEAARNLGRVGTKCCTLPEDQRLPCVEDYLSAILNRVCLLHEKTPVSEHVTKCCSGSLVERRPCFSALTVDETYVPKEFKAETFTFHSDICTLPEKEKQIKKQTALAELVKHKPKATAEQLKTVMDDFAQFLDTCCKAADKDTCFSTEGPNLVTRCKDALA
Procedure: as §2

[8] = target: T6, TCRab on primary human T cells (human, UniProt P01848 1-140; P01850 1-176); test: competition flow cytometry on primary human T cells, competitor T017000624 at EC30 (2E-08 M)
T6 construct: whole, on cells; T cells isolated from buffy coats; also called Primary hu T cells; human TCR
T6 TCR alpha (looked up): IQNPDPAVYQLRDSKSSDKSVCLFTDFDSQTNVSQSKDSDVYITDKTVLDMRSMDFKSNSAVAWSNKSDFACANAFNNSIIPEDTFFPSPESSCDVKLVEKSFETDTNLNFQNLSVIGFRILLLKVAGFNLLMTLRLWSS
T6 TCR beta (looked up): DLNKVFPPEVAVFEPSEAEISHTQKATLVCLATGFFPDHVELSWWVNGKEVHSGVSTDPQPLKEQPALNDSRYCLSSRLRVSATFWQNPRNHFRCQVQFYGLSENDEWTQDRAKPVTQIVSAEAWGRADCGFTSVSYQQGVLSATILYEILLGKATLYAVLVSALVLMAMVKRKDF
Procedure: as §1

[9] = target: T7, cyno TCRab, in house produced (extracellular domains fused to a zipper peptide) (cynomolgus); test: SPR ProteOn XPR36, TCRab immobilized by amine coupling, 1:1 model
T7 construct: Numbering of the four differences is not explained; not shown: variable domains, if any; any residues beyond C131 of the beta chain
T7 alpha: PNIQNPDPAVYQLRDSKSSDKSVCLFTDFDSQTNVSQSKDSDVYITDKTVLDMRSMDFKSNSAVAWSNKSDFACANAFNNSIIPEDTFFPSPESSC
T7 beta: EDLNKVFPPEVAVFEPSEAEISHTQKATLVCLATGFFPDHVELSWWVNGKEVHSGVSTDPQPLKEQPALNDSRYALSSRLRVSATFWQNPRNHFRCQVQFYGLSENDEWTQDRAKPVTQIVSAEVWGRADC
Procedure: as §2, with “Recombinant TCR” for “Serum albumin”, “0.2” for “0.24”, “200” for “500”, “3 M MgCl₂” for “10 mM Glycine-HCl (pH 1.5)”, “3 minutes” for “47 seconds”, “90” for “100”

B1: A022600424 (other)
chain: DVQLVESGGGVVQPGGSLRLSCVASGYVHKINFYGWYRQAPGKEREKVAHISIGDQTDYADSAKGRFTISRDESKNTVYLQMNSLRPEDTAAYYCRALSRIWPYDYWGQGTLVTVSSGGGGSEVQLVESGGGVVQPGGSLRLSCAASGFTFSSFAMTWVRRPPGKGLEWVATITNKGVTSYADSVKGRFTISRDNAKNTLYLQMNSLRPEDTALYICANARRTGPRAPTDIGSYRGQGTLVTVSSGGGGSGGGSEVQLVESGGGVVQPGGSLRLSCAASGSIFRSVFSSSTMEWYRQAPGKKRELVARIAPGEGTYYGALYADSVKGRFTISRDNAKNTVYLQMNSLRPEDTALYYCASGVAWGQGTLVTVSSGGGGSGGGSEVQLVESGGGVVQPGGSLRLSCAASGFTFRSFGMSWVRQAPGKGPEWVSSISGSGSDTLYADSVKGRFTISRDNSKNTLYLQMNSLRPEDTALYYCTIGGSLSRSSQGTLVTVSSA
notes: Trispecific tetravalent ISVD (VHH) T-cell engager: anti-TCR, two anti-GPC3 (biparatopic), anti-albumin; also called TCE01-5GS-A022600351-9GS-A022600314-9GS-ALB23002-A
With B1 the EC50 [1] was 1.25 nM, the IC50 [2] was 250 nM and the “IC50 (M) BxPC-3, xCELLigence human TDC assay” value [3] was greater than 1e-07 M. For the same binder, the “IC50 (M) HepG2, xCELLigence human TDC assay” value [3] was 1.15e-10 M, the “IC50 (M) Huh-7, xCELLigence human TDC assay” value [3] was 1.16e-10 M and the “IC50 (M) NCI-H23, xCELLigence human TDC assay” value [3] was greater than 1e-07 M. The “IC50 (M) NCI-H661, xCELLigence human TDC assay” value [3] was 1.14e-10 M, the EC50 [4] was 1 to 2 nM and the Kd [5] was 0.83 nM. For the same binder, the Kd [6] was 0.33 nM, the Kd [7] was 6.9 nM and the IC50 [8] was 170 nM. It also gave a Kd [9] of 5.4 nM.
